Columns and labels:
[1] = molecular target: T1, BAP070-01 (human-mouse chimeric MAb 583); test: C-ELISA, BAP070-01 supernatant on Protein G; competitor NT-biotin hepcidin-25; four parameter fit
T1 construct: used as CHO cell supernatant; also called BAP070-1
Experimental: The plate was washed with TBST and one (1) ng/well of NT-biotin hepcidin-25 was mixed with different amounts (0-100 ng) of synthetic hepcidin-25 standard in TBST, 0.25% BLOTTO and added onto the plate to bind competitively. The plate was washed with TBST and SA-HRP (1:2500) added and allowed to bind for 1 hour.
The plate was washed with TBST and […] substrate added and the reaction stopped after 10 minutes with stop solution. Absorbance at 450 nm was measured on a spectrophotometer.

BAP070-hum05 [2] = molecular target: T2, BAP070-hum05; test: C-ELISA: goat anti-human Fc coated plate, antibody captured, unlabelled hepcidin titrated against a labelled tracer not named for this figure; the EC50 row has 7 cells under 8 columns and is assigned in order to the 7 antibodies with human Fc
T2 construct: Expressed as soluble IgG1 in CHO cells, tested as supernatant; The entries stop inside FR4
T2 sequence (VH, as listed by the source, chain 1 of 2): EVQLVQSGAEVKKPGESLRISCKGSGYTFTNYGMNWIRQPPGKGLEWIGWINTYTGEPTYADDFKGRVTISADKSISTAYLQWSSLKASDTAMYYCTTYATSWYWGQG
T2 sequence (VL, as listed by the source, chain 2 of 2): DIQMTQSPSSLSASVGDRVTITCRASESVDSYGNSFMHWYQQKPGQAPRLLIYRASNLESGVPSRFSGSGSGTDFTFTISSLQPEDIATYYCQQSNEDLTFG

BAP070-hum02 [3] = molecular target: T3, BAP070-hum02; test: as above
T3 construct: Expressed as soluble IgG1 in CHO cells, tested as supernatant; The entries stop inside FR4
T3 sequence (VH, as listed by the source, chain 1 of 2): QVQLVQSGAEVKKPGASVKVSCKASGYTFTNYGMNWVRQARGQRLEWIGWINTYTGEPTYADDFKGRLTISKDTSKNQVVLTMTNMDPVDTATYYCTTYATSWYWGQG
T3 sequence (VL, as listed by the source, chain 2 of 2): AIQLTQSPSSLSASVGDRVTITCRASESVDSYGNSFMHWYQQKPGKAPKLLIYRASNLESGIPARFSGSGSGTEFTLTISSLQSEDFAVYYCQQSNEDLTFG

BAP070-hum06 [4] = molecular target: T4, BAP070-hum06; test: as above
T4 construct: Expressed as soluble IgG1 in CHO cells, tested as supernatant; The entries stop inside FR4
T4 sequence (VL, as listed by the source, chain 2 of 2): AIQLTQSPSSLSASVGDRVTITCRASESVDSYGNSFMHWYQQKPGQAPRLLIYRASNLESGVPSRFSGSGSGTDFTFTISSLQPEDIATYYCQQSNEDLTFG

BAP070-hum03 [5] = molecular target: T5, BAP070-hum03; test: as above
T5 construct: Expressed as soluble IgG1 in CHO cells, tested as supernatant; The entries stop inside FR4
T5 sequence (VH, as listed by the source, chain 1 of 2): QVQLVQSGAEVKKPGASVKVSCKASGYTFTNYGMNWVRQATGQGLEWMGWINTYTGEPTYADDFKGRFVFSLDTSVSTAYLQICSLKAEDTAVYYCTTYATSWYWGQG

[6] = molecular target: T1, BAP070-01 (human-mouse chimeric MAb 583); test: as above
BAP070-hum01 [7] = molecular target: T6, BAP070-hum01; test: as above
T6 construct: Expressed as soluble IgG1 in CHO cells, tested as supernatant; The entries stop inside FR4 (...WGQG / ...FG); also called humanized hit 1

BAP070-hum04 [8] = molecular target: T7, BAP070-hum04; test: as above
T7 construct: Expressed as soluble IgG1 in CHO cells, tested as supernatant; The entries stop inside FR4
T7 sequence (VL, as listed by the source, chain 2 of 2): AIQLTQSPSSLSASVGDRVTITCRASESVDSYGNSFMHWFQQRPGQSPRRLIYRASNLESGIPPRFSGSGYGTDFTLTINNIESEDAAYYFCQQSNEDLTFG

BAP070-hum03 [9] = molecular target: T5, BAP070-hum03; test: C-ELISA: goat anti-human Fc coated plate, antibody captured (30 ng/well per title of FIG. 20D), unlabelled hepcidin titrated (ng/well per axis of FIG. 20D) against a labelled tracer not named for this figure; OD = tracer left on the antibody
[10] = molecular target: T1, BAP070-01 (human-mouse chimeric MAb 583); test: as above
BAP070-hum01 [11] = molecular target: T6, BAP070-hum01; test: as above
MAb 583 = molecular target: T8, MAb 583; test: C-ELISA with purified MAb 583; competitor NT-biotin hepcidin-25
T8 construct: Murine monoclonal, Protein A purified
T8 sequence (VH, as listed by the source, chain 1 of 2): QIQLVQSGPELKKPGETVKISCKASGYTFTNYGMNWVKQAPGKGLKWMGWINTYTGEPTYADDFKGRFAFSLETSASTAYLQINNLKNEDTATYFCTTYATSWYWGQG
T8 sequence (VL, as listed by the source, chain 2 of 2): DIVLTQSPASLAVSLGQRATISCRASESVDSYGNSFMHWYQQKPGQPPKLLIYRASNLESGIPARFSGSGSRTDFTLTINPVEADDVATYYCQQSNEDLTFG

BAP070-hum05 [12] = molecular target: T2, BAP070-hum05; test: C-ELISA on goat anti-human Fc coat, hepcidin titrated against a labelled tracer not named for this figure
BAP070-hum02 [13] = molecular target: T3, BAP070-hum02; test: as above
BAP070-hum06 [14] = molecular target: T4, BAP070-hum06; test: as above
BAP070-hum03 [15] = molecular target: T5, BAP070-hum03; test: as above
[16] = molecular target: T1, BAP070-01 (human-mouse chimeric MAb 583); test: as above
BAP070-hum01 [17] = molecular target: T6, BAP070-hum01; test: as above
BAP070-hum04 [18] = molecular target: T7, BAP070-hum04; test: as above

T1 sequence (VH, as listed by the source, chain 1 of 2): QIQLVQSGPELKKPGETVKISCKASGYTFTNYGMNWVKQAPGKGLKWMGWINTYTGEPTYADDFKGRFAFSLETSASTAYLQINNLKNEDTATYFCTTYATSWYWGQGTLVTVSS
T1 sequence (VL, as listed by the source, chain 2 of 2): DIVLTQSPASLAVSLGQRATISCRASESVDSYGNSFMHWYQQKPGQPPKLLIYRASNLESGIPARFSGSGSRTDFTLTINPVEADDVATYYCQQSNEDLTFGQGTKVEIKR

B1: Human hepcidin peptide (hepcidin-25) (peptide)
peptide: DTHFPICIFCCGCCHRSKCGMCCKT
notes: Synthetic 25 aa peptide; also called hep-25; Hep-25
EC50 [1]: 0.054 µg/mL | EC50 (BAP070-hum05 [2]): 0.0188 µg/mL | EC50 (BAP070-hum02 [3]): 0.0179 µg/mL | EC50 (BAP070-hum06 [4]): 0.0186 µg/mL | EC50 (BAP070-hum03 [5]): 0.0205 µg/mL | EC50 [6]: 0.0174 µg/mL | EC50 (BAP070-hum01 [7]): 0.0237 µg/mL | EC50 (BAP070-hum04 [8]): 0.0191 µg/mL | OD450 at 0.000 ng/well hepcidin (BAP070-hum03 [9]): 2.13 | OD450 at 0.137 ng/well hepcidin (BAP070-hum03 [9]): 2.1 | OD450 at 0.412 ng/well hepcidin (BAP070-hum03 [9]): 1.96 | OD450 at 1.235 ng/well hepcidin (BAP070-hum03 [9]): 1.48 | OD450 at 3.704 ng/well hepcidin (BAP070-hum03 [9]): 0.653 | OD450 at 11.111 ng/well hepcidin (BAP070-hum03 [9]): 0.281 | OD450 at 33.333 ng/well hepcidin (BAP070-hum03 [9]): 0.0983 | OD450 at 100.000 ng/well hepcidin (BAP070-hum03 [9]): 0.0359 | OD450 at 0.000 ng/well hepcidin [10]: 2.88 | OD450 at 0.137 ng/well hepcidin [10]: 2.77 | OD450 at 0.412 ng/well hepcidin [10]: 2.65 | OD450 at 1.235 ng/well hepcidin [10]: 1.77 | OD450 at 3.704 ng/well hepcidin [10]: 0.826 | OD450 at 11.111 ng/well hepcidin [10]: 0.334 | OD450 at 33.333 ng/well hepcidin [10]: 0.125 | OD450 at 100.000 ng/well hepcidin [10]: 0.0442 | OD450 at 0.000 ng/well hepcidin (BAP070-hum01 [11]): 0.408 | OD450 at 0.137 ng/well hepcidin (BAP070-hum01 [11]): 0.424 | OD450 at 0.412 ng/well hepcidin (BAP070-hum01 [11]): 0.415 | OD450 at 1.235 ng/well hepcidin (BAP070-hum01 [11]): 0.311 | OD450 at 3.704 ng/well hepcidin (BAP070-hum01 [11]): 0.166 | OD450 at 11.111 ng/well hepcidin (BAP070-hum01 [11]): 0.0849 | OD450 at 33.333 ng/well hepcidin (BAP070-hum01 [11]): 0.0336 | OD450 at 100.000 ng/well hepcidin (BAP070-hum01 [11]): 0.0144 | EC50 (MAb 583): ≤ 0.005 µg/mL | IC50 (read off the curve) (BAP070-hum05 [12]): ~2 ng/well | IC50 (read off the curve) (BAP070-hum02 [13]): ~2 ng/well | IC50 (read off the curve) (BAP070-hum06 [14]): ~2 ng/well | IC50 (read off the curve) (BAP070-hum03 [15]): ~2 ng/well | IC50 (read off the curve) [16]: ~2 ng/well | IC50 (read off the curve) (BAP070-hum01 [17]): ~2 ng/well | IC50 (read off the curve) (BAP070-hum04 [18]): ~2 ng/well

Reference: patent US20170247448A1 (INTRINSIC LIFESCIENCES, published 2017)
